Positions count from the first letter of the chain named.
B1: Fab AZ1 (Fab)
heavy: EISEVQLVESGGGLVQPGGSLRLSCAASGFNLSYSSMHWVRQAPGKGLEWVASISPYSSYTSYADSVKGRFTISADTSKNTAYLQMNSLRAEDTAVYYCARGWVGMDYWGQGTLVTVSSASTKGPSVFPLAPSSKSTSGGTAALGCLVKDYFPEPVTVSWNSGALTSGVHTFPAVLQSSGLYSLSSVVTVPSSSLGTQTYICNVNHKPSNTKVDKKVEPKSCDKTHTGGSHHHHHH
light: SDIQMTQSPSSLSASVGDRVTITCRASQSVSSAVAWYQQKPGKAPKLLIYSASSLYSGVPSRFSGSRSGTDFTLTISSLQPEDFATYYCQQYYWGFPSLFTFGQGTKVEIKRTVAAPSVFIFPPSDSQLKSGTASVVCLLNNFYPREAKVQWKVDNALQSGNSQESVTEQDSKDSTYSLSSTLTLSKADYEKHKVYACEVTHQGLSSPVTKSFNRGECGGSDYKDDDDK
notes: Purified Fab from E. coli; The scaffold tags are kept
B2: Fab AZ2 (Fab)
heavy: EISEVQLVESGGGLVQPGGSLRLSCAASGFNIYSYYMHWVRQAPGKGLEWVAYISPYYSYTSYADSVKGRFTISADTSKNTAYLQMNSLRAEDTAVYYCARGYPWYGMDYWGQGTLVTVSSASTKGPSVFPLAPSSKSTSGGTAALGCLVKDYFPEPVTVSWNSGALTSGVHTFPAVLQSSGLYSLSSVVTVPSSSLGTQTYICNVNHKPSNTKVDKKVEPKSCDKTHTGGSHHHHHH
light: B1 light with Y92V, Y93S, G95A, F96Y, S98Y, F100I
notes: Purified Fab; graft limits inferred
B3: Fab AZ3 (Fab)
heavy: EISEVQLVESGGGLVQPGGSLRLSCAASGFNIYYSYMHWVRQAPGKGLEWVASISPYSSYTSYADSVKGRFTISADTSKNTAYLQMNSLRAEDTAVYYCARYGYSYYYYGALDYWGQGTLVTVSSASTKGPSVFPLAPSSKSTSGGTAALGCLVKDYFPEPVTVSWNSGALTSGVHTFPAVLQSSGLYSLSSVVTVPSSSLGTQTYICNVNHKPSNTKVDKKVEPKSCDKTHTGGSHHHHHH
light: SDIQMTQSPSSLSASVGDRVTITCRASQSVSSAVAWYQQKPGKAPKLLIYSASSLYSGVPSRFSGSRSGTDFTLTISSLQPEDFATYYCQQGWSGPWLITFGQGTKVEIKRTVAAPSVFIFPPSDSQLKSGTASVVCLLNNFYPREAKVQWKVDNALQSGNSQESVTEQDSKDSTYSLSSTLTLSKADYEKHKVYACEVTHQGLSSPVTKSFNRGECGGSDYKDDDDK
notes: as for B2
B4: Fab AZ5 (Fab)
heavy: EISEVQLVESGGGLVQPGGSLRLSCAASGFNLYYYYIHWVRQAPGKGLEWVASIYPSYGSTYYADSVKGRFTISADTSKNTAYLQMNSLRAEDTAVYYCARASVWFGWYVPSAMDYWGQGTLVTVSSASTKGPSVFPLAPSSKSTSGGTAALGCLVKDYFPEPVTVSWNSGALTSGVHTFPAVLQSSGLYSLSSVVTVPSSSLGTQTYICNVNHKPSNTKVDKKVEPKSCDKTHTGGSHHHHHH
light: SDIQMTQSPSSLSASVGDRVTITCRASQSVSSAVAWYQQKPGKAPKLLIYSASSLYSGVPSRFSGSRSGTDFTLTISSLQPEDFATYYCQQWPGWYPITFGQGTKVEIKRTVAAPSVFIFPPSDSQLKSGTASVVCLLNNFYPREAKVQWKVDNALQSGNSQESVTEQDSKDSTYSLSSTLTLSKADYEKHKVYACEVTHQGLSSPVTKSFNRGECGGSDYKDDDDK
notes: as for B2
B5: Fab AZ6 (Fab)
heavy: EISEVQLVESGGGLVQPGGSLRLSCAASGFNLSYSYIHWVRQAPGKGLEWVASIYSSSGSTYYADSVKGRFTISADTSKNTAYLQMNSLRAEDTAVYYCARGSHAHGWAWFWYGMDYWGQGTLVTVSSASTKGPSVFPLAPSSKSTSGGTAALGCLVKDYFPEPVTVSWNSGALTSGVHTFPAVLQSSGLYSLSSVVTVPSSSLGTQTYICNVNHKPSNTKVDKKVEPKSCDKTHTGGSHHHHHH
light: SDIQMTQSPSSLSASVGDRVTITCRASQSVSSAVAWYQQKPGKAPKLLIYSASSLYSGVPSRFSGSRSGTDFTLTISSLQPEDFATYYCQQSSYSLITFGQGTKVEIKRTVAAPSVFIFPPSDSQLKSGTASVVCLLNNFYPREAKVQWKVDNALQSGNSQESVTEQDSKDSTYSLSSTLTLSKADYEKHKVYACEVTHQGLSSPVTKSFNRGECGGSDYKDDDDK
notes: as for B2
B6: Fab AZ7 (Fab)
heavy: EISEVQLVESGGGLVQPGGSLRLSCAASGFNLSSYSMHWVRQAPGKGLEWVASIYSYYGSTSYADSVKGRFTISADTSKNTAYLQMNSLRAEDTAVYYCARYSPWVYYPYYGWYSGMDYWGQGTLVTVSSASTKGPSVFPLAPSSKSTSGGTAALGCLVKDYFPEPVTVSWNSGALTSGVHTFPAVLQSSGLYSLSSVVTVPSSSLGTQTYICNVNHKPSNTKVDKKVEPKSCDKTHTGGSHHHHHH
light: B5 light
notes: as for B2

Key:
[1] = biological target: biotinylated C-terminally truncated BCL-xL (residues 2-215), no ligand (DMSO vehicle) (human) (UniProt Q07817); assay: BLI (Octet), biotinylated BCL-xL on streptavidin sensor, Fab as analyte, no ABT-737
[2] = biological target: T1, BCL-xL/Bak-peptide complex: biotinylated BCL-xL (residues 2-215) in the presence of 5 µM Bak peptide (human, UniProt Q07817 2-215, biotin on the N-terminal AviTag); assay: biolayer interferometry, immobilized BCL-xL, 100 nM Fab with 5 µM Bak peptide
T1 construct: Bak peptide bought from Anaspec (AS-61616); not shown: N-terminal tags (pMCSG7 vector tag used for Ni-NTA, AviTag, TEV cut site)

[3] = biological target: T2, BCL-xL/ABT-737 complex: biotinylated BCL-xL (residues 2-215) in the presence of 1 µM ABT-737 (human, UniProt Q07817 2-215, biotin on the N-terminal AviTag; small molecule ABT-737 bound non-covalently); assay: ELISA, biotinylated BCL-xL captured on NeutrAvidin, Fab titrated with 1 µM ABT-737, anti-Fab-HRP detection
T2 construct: Same protein as m1; not shown: N-terminal tags (pMCSG7 vector tag used for Ni-NTA, AviTag, TEV cut site)

[4] = biological target: T2, BCL-xL/ABT-737 complex: biotinylated …; assay: ELISA, biotinylated BCL-xL captured on NeutrAvidin, Fab titrated with 1 µM ABT-737, anti-Fab-HRP detection [continued]
[5] = biological target: T3, biotinylated C-terminally truncated BCL-xL (residues 2-215), no ligand (DMSO vehicle) (human, UniProt Q07817 2-215, biotin on the N-terminal AviTag); assay: ELISA, biotinylated BCL-xL captured on NeutrAvidin, Fab titrated with 0.05% DMSO (no ABT-737), anti-Fab-HRP detection [continued]
T3 construct: also called apo BCL-xL; not shown: N-terminal tags (pMCSG7 vector tag used for Ni-NTA, AviTag, TEV cut site)
T3 sequence (Q07817 2-215): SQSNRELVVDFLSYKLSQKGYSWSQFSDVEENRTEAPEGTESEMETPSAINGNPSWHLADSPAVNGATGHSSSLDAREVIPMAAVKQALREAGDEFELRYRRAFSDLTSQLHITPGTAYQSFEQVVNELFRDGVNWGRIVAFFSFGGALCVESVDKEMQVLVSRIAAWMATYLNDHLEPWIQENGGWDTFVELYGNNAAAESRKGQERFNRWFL

T2 sequence (Q07817 2-215, one chain of several): as the sequence (Q07817 2-215) above
biotinylated C-terminally truncated BCL-xL (residues 2-215), no ligand (DMSO vehicle) (human), sequence (Q07817 2-215): as above
T1 sequence (Q07817 2-215, one chain of several): as the sequence (Q07817 2-215) above

Row | Binder | Kd [1] [nM] | binding result [2] | EC50 (read off the curve) [3] [nM] | binding result [4] | binding result [5]
1 | B1 | > 5000 | no binding (tested: 100 nM) | – | – | –
2 | B2 | > 5000 | no binding (tested: 100 nM) | ~2 | – | –
3 | B3 | > 5000 | no binding (tested: 100 nM) | ~7 | – | –
4 | B4 | – | – | – | binds | binds
5 | B5 | – | – | – | binds | binds
6 | B6 | – | – | – | binds | binds
